Experimental data as given in patent US20240052036A1 (Merck Sharp & Dohme, published 2024).

Target: T1, recombinant human LAG-3 (rhLAG-3) (human, UniProt P18627 23-450, limits assumed)
T1 construct: also called CD223
T1 sequence (looked up): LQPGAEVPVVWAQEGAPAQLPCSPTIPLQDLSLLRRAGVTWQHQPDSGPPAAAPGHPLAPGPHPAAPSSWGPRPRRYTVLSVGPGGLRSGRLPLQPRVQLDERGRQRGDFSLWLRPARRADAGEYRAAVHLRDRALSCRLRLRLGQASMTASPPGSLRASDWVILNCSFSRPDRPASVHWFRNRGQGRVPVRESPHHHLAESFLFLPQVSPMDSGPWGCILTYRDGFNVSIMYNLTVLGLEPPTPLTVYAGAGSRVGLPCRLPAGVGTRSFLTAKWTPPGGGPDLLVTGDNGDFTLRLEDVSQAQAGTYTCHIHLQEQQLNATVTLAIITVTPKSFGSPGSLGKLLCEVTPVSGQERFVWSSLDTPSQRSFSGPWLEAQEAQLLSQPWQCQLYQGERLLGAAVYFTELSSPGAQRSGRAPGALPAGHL
Assay: binding ELISA, immobilized rhLAG-3, 4-parameter fit, relative potency
Experimental: The potency assay assesses anti-LAG3 activity in Formulation A through anti-LAG3 binding to immobilized recombinant human LAG-3 (rhLAG-3). Dose response curves were generated by using serial dilutions of anti-LAG3 reference material and test samples. […] Relative potency was calculated by applying Parallel Line Analysis of dose-response curves in SoftMax® Pro. Potency of a test sample was reported as geometric mean potency relative to the reference material with a geometric standard deviation and 95% confidence interval.

- binding result: binds
B1: anti-LAG3 antibody (SEQ ID NOs: 35 and 57, light and heavy chains) (antibody, human IgG4 S228P, kappa, V domains shown)
VH: QMQLVQSGPEVKKPGTSVKVSCKASGYTFTDYNVDWVRQARGQRLEWIGDINPNDGGTIYAQKFQERVTITVDKSTSTAYMELSSLRSEDTAVYYCARNYRWFGAMDHWGQGTTVTVSS
VL: DIVMTQTPLSLSVTPGQPASISCKASQSLDYEGDSDMNWYLQKPGQPPQLLIYGASNLESGVPDRFSGSGSGTDFTLKISRVEAEDVGVYYCQQSTEDPRTFGGGTKVEIKR
notes: Tested in Formulation A (25 mg/mL antibody, 50 mg/mL sucrose, 0.2 mg/mL polysorbate 80, 10 mM histidine pH 5.8, 70 mM L-arginine-HCl); also called Ab6; anti-LAG3 drug product
